# Values of other authors in patent US20230076733A1, “Combination Therapy” (AGENCY FOR SCIENCE, TECHNOLOGY AND RESEARCH, priority 2020, published 2023).
# B1: Figitumumab (antibody, chains of the INN, looked up)
# heavy: EVQLLESGGGLVQPGGSLRLSCTASGFTFSSYAMNWVRQAPGKGLEWVSAISGSGGTTFYADSVKGRFTISRDNSRTTLYLQMNSLRAEDTAVYYCAKDLGWSDSYYYYYGMDVWGQGTTVTVSSASTKGPSVFPLAPCSRSTSESTAALGCLVKDYFPEPVTVSWNSGALTSGVHTFPAVLQSSGLYSLSSVVTVPSSNFGTQTYTCNVDHKPSNTKVDKTVERKCCVECPPCPAPPVAGPSVFLFPPKPKDTLMISRTPEVTCVVVDVSHEDPEVQFNWYVDGVEVHNAKTKPREEQFNSTFRVVSVLTVVHQDWLNGKEYKCKVSNKGLPAPIEKTISKTKGQPREPQVYTLPPSREEMTKNQVSLTCLVKGFYPSDIAVEWESNGQPENNYKTTPPMLDSDGSFFLYSKLTVDKSRWQQGNVFSCSVMHEALHNHYTQKSLSLSPG
# light: DIQMTQFPSSLSASVGDRVTITCRASQGIRNDLGWYQQKPGKAPKRLIYAASRLHRGVPSRFSGSGSGTEFTLTISSLQPEDFATYYCLQHNSYPCSFGQGTKLEIKRTVAAPSVFIFPPSDEQLKSGTASVVCLLNNFYPREAKVQWKVDNALQSGNSQESVTEQDSKDSTYSLSSTLTLSKADYEKHKVYACEVTHQGLSSPVTKSFNRGEC
# Conditions: phase 3 trials, cited from earlier work
molecule,measurement,setting,value
B1,serious adverse events and deaths,"lung cancer, Figitumumab in combination with one chemotherapy regimen versus carboplatin or paclitaxel chemotherapy alone",21%
same,survival,Figitumumab combined with established chemotherapy regimens (carboplatin and paclitaxel),failed to improve survival
